From US20150010538A1 (AbbVie / Abbott, published 2015)
Substitutions are numbered along the chain they refer to. Numbers in names are those of the source. Read-outs that look alike come from different tables or passages of the source.

B1: VSR-SN Fab (Fab, V domains shown)
VH: QVQLVQSGAEVKKPGSSVKVSCKASGYTFTSYRMHWVRQAPGQGLEWIGYIVPSRGYTEYNQKFKDKATITADESTNTAYMELSSLRSEDTAVYYCARGGGVFDYWGQGTLVTVSS
VL: DIQMTQSPSTLSASVGDRVTITCSASSSISYMHWYQQKPGKAPKLLIYTTSNLASGVPARFSGSGSGTEFTLTISSLQPDDFATYYCHQRSTYPLTFGQGTKVEVK
notes: also called VSR-SN in Fab; copies: 1 + 1
B2: NuhuTac (rehumanized anti-Tac) (antibody, V domains shown)
VH: B1 VH with Q1E, S16A, V52N, R55T, I70M, E74K, T76I, N77S
VL: EIVLTQSPATLSLSPGERATLTCSASSSISYMHWFQQKPGQAPRLLIYTTSNLASGIPARFSGSGSGTDYTLTISSLEPEDFAVYYCHQRSTYPLTFGQGTKVEIK
notes: VH on human framework R3.5H5G, VL on ka3d1; N-terminal Glu in VH; also called rehumanized antibody
B3: daclizumab VL S29R-S31T (antibody, IgG1, V domains shown)
VH: B1 VH with V52N, R55T
VL: B1 VL with S28R, S30T
notes: Soluble IgG1/kappa; also called R29T31
B4: NuhuTacVH with daclizumabVL (antibody, V domains shown)
VH: B1 VH with Q1E, S16A, V52N, R55T, I70M, E74K, T76I, N77S
VL: B1 VL
B5: daclizumab VH variant SNKYL (antibody, IgG1, name in Kabat numbering, V domains shown)
VH: B1 VH with V52S, S54N, R55K, E59L
VL: B1 VL
notes: VH library clone, soluble IgG1
B6: daclizumab VH variant RKGFE (antibody, IgG1, name in Kabat numbering, V domains shown)
VH: B1 VH with V52R, S54K, R55G, Y57F
VL: B1 VL
notes: as for B5
B7: daclizumab VH variant QRKFH (antibody, IgG1, name in Kabat numbering, V domains shown)
VH: B1 VH with V52Q, S54R, R55K, Y57F, E59H
VL: B1 VL
notes: as for B5
B8: daclizumab VH variant RRKFE (antibody, IgG1, name in Kabat numbering, V domains shown)
VH: B1 VH with V52R, S54R, R55K, Y57F
VL: B1 VL
notes: as for B5
B9: daclizumab VH variant RRGFE (antibody, IgG1, name in Kabat numbering, V domains shown)
VH: B1 VH with V52R, S54R, R55G, Y57F
VL: B1 VL
notes: as for B5
B10: daclizumab VH and NuhuTacVL (antibody, V domains shown)
VH: B1 VH with V52N, R55T
VL: B2 VL
B11: daclizumab VH variant RKGFN (antibody, IgG1, name in Kabat numbering, V domains shown)
VH: B1 VH with V52R, S54K, R55G, Y57F, E59N
VL: B1 VL
notes: as for B5

Experiments:
[1] = target: T1, recombinant human CD25 (IL2-Rα) (human, UniProt P01589 22-213, limits assumed); assay: competition ELISA: binding of biotinylated wild type daclizumab IgG to CD25 in the presence of titrated competitor Fab, O.D. 415
T1 construct: Bought recombinant soluble protein; also called IL2 receptor α chain; recombinant soluble human CD25
T1 sequence (looked up): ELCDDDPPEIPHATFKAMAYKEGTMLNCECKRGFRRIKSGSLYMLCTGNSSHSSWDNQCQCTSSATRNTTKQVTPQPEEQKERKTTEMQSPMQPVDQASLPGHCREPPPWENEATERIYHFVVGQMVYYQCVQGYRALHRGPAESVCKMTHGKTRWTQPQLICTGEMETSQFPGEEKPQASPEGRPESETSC
Procedure: Wells of 96-well ELISA plates (Nunc-Immuno MaxiSorp plates, Nalge Nunc, Rochester, N.Y.) were coated with 100 μL of 0.2 μg/mL CD25 (Pepro Tech Inc., Rocky Hill, N.J.) in 0.2 M sodium carbonate-bicarbonate buffer (pH 9.4, Pierce, Rockford, Ill.) overnight at 4° C. After washing with Wash Buffer, wells were blocked with 200 μL of Superblock Blocking Buffer (Pierce, Rockford, Ill.) for 30 min and then washed. […] The plate was then washed with washing buffer three times. After washing, 100 μL of 1 μg/mL HRP-conjugated Streptavidin (Pierce) diluted in ELISA buffer was added to each well. After 30 minutes of incubation at room temperature, plates were washed and bound antibodies were detected by addition of ABTS substrate (Kirkegaard & Perry Laboratories, Gaithersburg, Md.). […] Binding inhibition curves were fitted using nonlinear regression with the software [sequence]

[2] = target: T1, recombinant human CD25 (IL2-Rα); assay: ELISA competition assay on CD25 (format of Section 6.3.1.1: competitor antibody titrated against biotinylated daclizumab on plate-coated CD25), OD415
Procedure: (§1) Wells of 96-well ELISA plates (Nunc-Immuno MaxiSorp plates, Nalge Nunc, Rochester, N.Y.) were coated with 100 μL of 0.2 μg/mL CD25 (Pepro Tech Inc., Rocky Hill, N.J.) in 0.2 M sodium carbonate-bicarbonate buffer (pH 9.4, Pierce, Rockford, Ill.) overnight at 4° C. After washing with Wash Buffer, wells were blocked with 200 μL of Superblock Blocking Buffer (Pierce, Rockford, Ill.) for 30 min and then washed. […] The plate was then washed with washing buffer three times. After washing, 100 μL of 1 μg/mL HRP-conjugated Streptavidin (Pierce) diluted in ELISA buffer was added to each well. After 30 minutes of incubation at room temperature, plates were washed and bound antibodies were detected by addition of ABTS substrate (Kirkegaard & Perry Laboratories, Gaithersburg, Md.). […] PRISM (GraphPad, San Diego) and reported as IC₅₀ wild type/IC₅₀ mutant (fold improvement over wild type control).

[3] = target: T1, recombinant human CD25 (IL2-Rα); assay: as above; remark: listed apart in the source
Procedure: as §1

[4] = target: T1, recombinant human CD25 (IL2-Rα); assay: competition ELISA on plate-coated CD25; competitor biotinylated daclizumab
Procedure: as §1

[5] = target: T1, recombinant human CD25 (IL2-Rα); assay: competitive ELISA on plate-coated CD25; competitor biotinylated daclizumab
Procedure: as §1

Binder | fold affinity over the parental antibody [5] | other results
B1 | – | IC50 (read off the curve) [1]: ~30 nM
B2 | – | EC50 [2]: 0.49 µg/mL; EC50 [3]: 0.71 µg/mL
B3 | – | fold improvement in binding over daclizumab [4]: ~2 fold
B4 | – | EC50 [2]: 0.47 µg/mL
B5 | ~10 fold | –
B6 | ~10 fold | –
B7 | ~10 fold | –
B8 | ~10 fold | –
B9 | ~10 fold | –
B10 | – | EC50 [2]: 1.18 µg/mL
B11 | ~10 fold | –
